Data taken from patent publication EP4321174A1 (Genome and Company, dated 2024).

How the values were obtained:
Test in all cases: ELISA, coated CNTN4 domain sample, anti-human IgG Fc-HRP
[1] = biological target: T1, Human CNTN4 domain sample D1-6 (human, UniProt Q8IWV2 19-586, limits assumed)
T1 construct: domain: Domains 1 to 6; Coated at 2.3 ug/mL
T1 sequence (looked up): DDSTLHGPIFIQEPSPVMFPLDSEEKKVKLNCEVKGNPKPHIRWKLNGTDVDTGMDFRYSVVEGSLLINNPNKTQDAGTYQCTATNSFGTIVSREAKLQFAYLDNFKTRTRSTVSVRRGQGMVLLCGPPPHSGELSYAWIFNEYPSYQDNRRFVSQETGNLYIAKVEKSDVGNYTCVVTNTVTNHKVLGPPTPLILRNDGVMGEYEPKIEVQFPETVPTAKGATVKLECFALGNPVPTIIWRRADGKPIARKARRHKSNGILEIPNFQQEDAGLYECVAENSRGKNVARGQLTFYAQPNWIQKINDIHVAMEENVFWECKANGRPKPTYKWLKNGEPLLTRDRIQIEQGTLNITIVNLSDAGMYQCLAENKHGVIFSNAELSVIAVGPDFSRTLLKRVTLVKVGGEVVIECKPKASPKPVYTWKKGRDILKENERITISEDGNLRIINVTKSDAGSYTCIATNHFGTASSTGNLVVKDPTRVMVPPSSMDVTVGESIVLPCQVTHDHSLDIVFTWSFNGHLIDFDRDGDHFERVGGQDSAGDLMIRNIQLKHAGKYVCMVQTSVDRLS

[2] = biological target: T2, Human CNTN4 domain sample D1-9 (human, UniProt Q8IWV2 19-899, limits assumed)
T2 construct: domain: Domains 1 to 9; Coated at 3.6 ug/mL
T2 sequence (looked up): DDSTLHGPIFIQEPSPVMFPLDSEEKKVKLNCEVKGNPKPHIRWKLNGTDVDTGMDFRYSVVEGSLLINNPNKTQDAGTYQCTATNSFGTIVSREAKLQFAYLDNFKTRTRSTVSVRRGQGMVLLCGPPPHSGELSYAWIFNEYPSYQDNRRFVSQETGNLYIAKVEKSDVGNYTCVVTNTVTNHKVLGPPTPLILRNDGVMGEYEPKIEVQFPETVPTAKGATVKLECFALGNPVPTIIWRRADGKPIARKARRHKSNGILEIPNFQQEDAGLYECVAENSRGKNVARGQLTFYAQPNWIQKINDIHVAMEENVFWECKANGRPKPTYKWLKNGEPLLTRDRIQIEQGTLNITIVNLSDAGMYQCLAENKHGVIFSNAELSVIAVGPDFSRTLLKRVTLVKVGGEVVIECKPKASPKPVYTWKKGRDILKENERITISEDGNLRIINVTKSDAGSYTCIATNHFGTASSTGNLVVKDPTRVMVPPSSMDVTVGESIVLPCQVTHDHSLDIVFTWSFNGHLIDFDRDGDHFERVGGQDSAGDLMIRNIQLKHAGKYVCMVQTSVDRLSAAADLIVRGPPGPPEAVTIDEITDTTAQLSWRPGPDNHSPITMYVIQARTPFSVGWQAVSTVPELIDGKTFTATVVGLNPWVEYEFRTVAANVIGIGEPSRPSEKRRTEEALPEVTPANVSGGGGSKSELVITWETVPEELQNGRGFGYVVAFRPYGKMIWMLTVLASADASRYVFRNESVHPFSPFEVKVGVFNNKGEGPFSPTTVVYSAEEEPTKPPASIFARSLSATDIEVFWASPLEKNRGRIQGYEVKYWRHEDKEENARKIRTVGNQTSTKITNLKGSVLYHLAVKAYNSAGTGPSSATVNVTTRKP

[3] = biological target: T3, Human CNTN4 domain sample D1-4 (human, UniProt Q8IWV2 19-400, limits assumed)
T3 construct: domain: Domains 1 to 4; Coated at 1.6 ug/mL
T3 sequence (looked up): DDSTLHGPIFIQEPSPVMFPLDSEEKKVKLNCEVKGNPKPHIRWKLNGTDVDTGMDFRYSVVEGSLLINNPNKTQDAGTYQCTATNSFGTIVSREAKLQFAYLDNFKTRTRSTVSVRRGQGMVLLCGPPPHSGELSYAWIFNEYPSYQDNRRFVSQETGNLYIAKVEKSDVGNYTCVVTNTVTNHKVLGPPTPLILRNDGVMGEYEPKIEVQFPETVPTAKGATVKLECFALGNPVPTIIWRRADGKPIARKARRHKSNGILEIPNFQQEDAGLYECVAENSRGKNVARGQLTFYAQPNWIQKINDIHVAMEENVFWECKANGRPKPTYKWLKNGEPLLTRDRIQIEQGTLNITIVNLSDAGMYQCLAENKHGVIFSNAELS

[4] = biological target: T4, Human CNTN4 domain sample Full (Domains 1 to 10) (human, UniProt Q8IWV2 19-1000, limits assumed)
T4 construct: domain: Domains 1 to 10 (Ig1 to FN4); Coated on the ELISA plate at 4 ug/mL
T4 sequence (looked up): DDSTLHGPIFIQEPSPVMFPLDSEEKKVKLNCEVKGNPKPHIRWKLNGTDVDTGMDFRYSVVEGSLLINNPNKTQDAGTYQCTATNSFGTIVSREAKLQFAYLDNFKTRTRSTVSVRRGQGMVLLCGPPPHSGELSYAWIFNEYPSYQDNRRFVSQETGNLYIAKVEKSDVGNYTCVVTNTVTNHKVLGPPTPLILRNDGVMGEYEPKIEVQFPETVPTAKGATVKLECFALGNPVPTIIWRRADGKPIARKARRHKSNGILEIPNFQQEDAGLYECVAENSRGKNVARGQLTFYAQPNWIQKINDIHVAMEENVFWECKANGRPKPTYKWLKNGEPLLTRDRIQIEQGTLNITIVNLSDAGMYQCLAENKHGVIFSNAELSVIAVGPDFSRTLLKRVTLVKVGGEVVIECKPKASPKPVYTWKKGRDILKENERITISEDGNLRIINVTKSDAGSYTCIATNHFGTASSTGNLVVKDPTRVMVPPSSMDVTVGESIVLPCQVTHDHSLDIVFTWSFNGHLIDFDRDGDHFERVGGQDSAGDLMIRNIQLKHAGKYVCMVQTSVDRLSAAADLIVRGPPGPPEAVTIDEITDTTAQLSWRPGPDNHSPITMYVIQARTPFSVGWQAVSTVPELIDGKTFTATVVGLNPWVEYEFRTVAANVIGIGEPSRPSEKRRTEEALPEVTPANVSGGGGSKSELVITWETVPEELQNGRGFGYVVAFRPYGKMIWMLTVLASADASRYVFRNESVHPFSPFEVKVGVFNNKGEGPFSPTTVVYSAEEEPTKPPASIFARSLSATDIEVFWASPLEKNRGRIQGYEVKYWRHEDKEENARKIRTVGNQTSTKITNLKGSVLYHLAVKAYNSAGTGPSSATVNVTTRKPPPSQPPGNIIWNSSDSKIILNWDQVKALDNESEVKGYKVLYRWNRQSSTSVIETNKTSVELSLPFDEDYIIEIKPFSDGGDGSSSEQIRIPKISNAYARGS

[5] = biological target: T5, Human CNTN4 domain sample D1-5 (human, UniProt Q8IWV2 19-493, limits assumed)
T5 construct: domain: Domains 1 to 5; Coated at 2.0 ug/mL
T5 sequence (looked up): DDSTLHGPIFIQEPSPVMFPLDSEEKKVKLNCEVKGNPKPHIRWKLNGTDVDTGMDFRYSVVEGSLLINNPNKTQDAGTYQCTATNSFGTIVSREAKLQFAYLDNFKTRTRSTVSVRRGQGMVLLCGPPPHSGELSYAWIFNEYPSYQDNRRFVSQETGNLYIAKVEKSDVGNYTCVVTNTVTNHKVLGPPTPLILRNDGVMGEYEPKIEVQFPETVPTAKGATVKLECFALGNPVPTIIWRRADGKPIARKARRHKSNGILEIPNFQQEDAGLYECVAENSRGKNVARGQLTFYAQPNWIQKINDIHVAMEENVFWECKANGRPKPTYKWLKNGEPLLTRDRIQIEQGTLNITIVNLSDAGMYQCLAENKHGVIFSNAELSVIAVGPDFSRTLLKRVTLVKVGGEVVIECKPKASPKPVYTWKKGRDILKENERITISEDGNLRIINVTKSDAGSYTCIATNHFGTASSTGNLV

[6] = biological target: T6, Human CNTN4 domain sample D1-7 (human, UniProt Q8IWV2 19-697, limits assumed)
T6 construct: domain: Domains 1 to 7; Coated at 2.8 ug/mL
T6 sequence (looked up): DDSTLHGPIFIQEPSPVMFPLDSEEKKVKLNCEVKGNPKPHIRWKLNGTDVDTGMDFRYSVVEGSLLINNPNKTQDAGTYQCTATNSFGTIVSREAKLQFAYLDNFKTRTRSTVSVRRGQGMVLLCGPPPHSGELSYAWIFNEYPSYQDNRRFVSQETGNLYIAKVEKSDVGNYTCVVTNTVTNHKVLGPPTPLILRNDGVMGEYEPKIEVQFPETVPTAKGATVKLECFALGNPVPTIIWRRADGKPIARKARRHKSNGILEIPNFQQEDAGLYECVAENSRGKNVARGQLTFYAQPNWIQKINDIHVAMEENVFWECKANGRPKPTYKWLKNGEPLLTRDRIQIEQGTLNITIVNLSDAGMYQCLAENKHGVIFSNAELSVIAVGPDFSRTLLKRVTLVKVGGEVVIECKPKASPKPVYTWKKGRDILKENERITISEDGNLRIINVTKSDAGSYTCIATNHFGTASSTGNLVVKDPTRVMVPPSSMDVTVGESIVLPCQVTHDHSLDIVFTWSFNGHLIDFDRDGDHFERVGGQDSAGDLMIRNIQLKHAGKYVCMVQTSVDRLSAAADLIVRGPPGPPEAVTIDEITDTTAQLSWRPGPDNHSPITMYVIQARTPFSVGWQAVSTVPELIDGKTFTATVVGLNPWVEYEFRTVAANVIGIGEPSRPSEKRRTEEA

[7] = biological target: T7, Human CNTN4 domain sample D1-8 (human, UniProt Q8IWV2 19-799, limits assumed)
T7 construct: domain: Domains 1 to 8; Coated at 3.2 ug/mL
T7 sequence (looked up): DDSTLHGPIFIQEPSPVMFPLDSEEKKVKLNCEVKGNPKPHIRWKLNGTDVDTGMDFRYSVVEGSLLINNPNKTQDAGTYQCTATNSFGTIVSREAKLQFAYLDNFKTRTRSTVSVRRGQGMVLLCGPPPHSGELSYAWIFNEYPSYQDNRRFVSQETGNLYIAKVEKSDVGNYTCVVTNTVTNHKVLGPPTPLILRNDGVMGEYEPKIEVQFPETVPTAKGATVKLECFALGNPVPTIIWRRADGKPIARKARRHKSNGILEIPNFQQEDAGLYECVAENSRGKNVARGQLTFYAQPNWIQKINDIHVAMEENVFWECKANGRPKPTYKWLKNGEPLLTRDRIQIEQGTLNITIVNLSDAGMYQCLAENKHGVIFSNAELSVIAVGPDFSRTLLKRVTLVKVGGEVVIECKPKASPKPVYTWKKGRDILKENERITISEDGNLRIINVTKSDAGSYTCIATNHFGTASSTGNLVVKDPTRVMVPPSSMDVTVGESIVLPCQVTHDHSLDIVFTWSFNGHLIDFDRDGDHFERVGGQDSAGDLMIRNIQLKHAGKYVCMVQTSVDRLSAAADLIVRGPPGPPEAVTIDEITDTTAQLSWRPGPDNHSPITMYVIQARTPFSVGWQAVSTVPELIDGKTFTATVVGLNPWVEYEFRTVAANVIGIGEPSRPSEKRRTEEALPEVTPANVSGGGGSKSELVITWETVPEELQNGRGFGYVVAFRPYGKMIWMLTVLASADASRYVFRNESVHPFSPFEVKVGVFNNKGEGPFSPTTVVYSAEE

- binding result [1]: no binding
- binding result [2]: binds
- binding result [3]: no binding
- binding result [4]: binds
- binding result [5]: no binding
- binding result [6]: no binding
- binding result [7]: binds
B1: anti-CNTN4 chicken-human chimeric IgG4 antibody AB1 (antibody, V domains shown)
VH: AVTLDESEGGLQTPGGALSLVCKASGFTFSSFNMFWVRQAPGKGLEYVAEISGGGGSTWYAPAVKGRATISRDNGQSTVRLQLNNLRAEDTGTYYCAKSADTWSYGAATIDAWGHGTEVIVSS
VL: ALTQPSSVSANLGETVKITCSGSSGSYGWYQQKSPGSAPVTLIYDNTNRPSDIPSRFSGSGSGSTGTLTITGVRAEDEAVYYCGGYDGSTDVFGAGTTLTVL
notes: They were cloned into a chicken-human chimeric IgG4 and purified on Kappa select resin, so the light chain has a kappa constant region; also called anti-CNTN4 antibody AB1; anti-CNTN4 129 chimeric IgG4 antibody
